Data published in IntAct's records for PubMed 19176810.

Target: fadd_human FADD (UniProt Q13158)
Chain of UniProt Q13158 (Q13158 whole entry): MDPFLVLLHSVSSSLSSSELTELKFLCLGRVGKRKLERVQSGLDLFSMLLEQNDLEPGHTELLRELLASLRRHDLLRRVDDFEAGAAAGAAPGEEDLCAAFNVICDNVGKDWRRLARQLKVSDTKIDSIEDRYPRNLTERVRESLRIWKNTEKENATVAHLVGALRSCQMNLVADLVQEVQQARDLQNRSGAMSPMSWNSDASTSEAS

Substance | effect of a mutation on the interaction
Leucine-rich repeat serine/threonine-protein kinase 2 (Homo sapiens), Q5S007 G2019S | increasing interaction
Leucine-rich repeat serine/threonine-protein kinase 2 (Homo sapiens), Q5S007 I2020T | increasing interaction
Leucine-rich repeat serine/threonine-protein kinase 2 (Homo sapiens), Q5S007 R1441C | increasing interaction
Leucine-rich repeat serine/threonine-protein kinase 2 (Homo sapiens), Q5S007 Y1699C | increasing interaction
